Key:
[1] = target: bacteriophage 80α portal protein (gp42) in situ in SaPI1 virions (Staphylococcus aureus bacteriophage 80α); assay: cryo-EM structure; focused reconstruction with C12 symmetry of the portal complex in situ in purified full and empty SaPI1 virions (assembled in S. aureus), after signal subtraction of the capsid; 3.2 Å (full) and 3.5 Å (empty)
[2] = target: bacteriophage 80α portal protein (gp42), expressed in E. coli with a C-terminal hexahistidine tag (Staphylococcus aureus bacteriophage 80α); assay: cryo-EM structure; portals expressed in E. coli, in solution (25 mM HEPES pH 7.4, 0.1 M NaCl); 2D classification and C13 reconstruction in RELION-3, 2.4 Å
[3] = target: the molecule itself; assay: cryo-EM structure; icosahedral reconstruction of full and empty capsids of purified SaPI1 virions (assembled in S. aureus); 3.1 Å (full, used to model CP) and 3.2 Å (empty)

bacteriophage 80α portal protein (gp42) in situ in SaPI1 virions (natural protein)
stoichiometry N [1]: 12

bacteriophage 80α portal protein (gp42), expressed in E. coli with a C-terminal hexahistidine tag (natural protein)
stoichiometry N [2]: 13

B1: bacteriophage 80α capsid protein (gp47) in mature SaPI1 capsids (natural protein, Staphylococcus aureus bacteriophage 80α, UniProt A4ZFB3 15-324, looked up)
chain: ASNNVKPQVFNPDNVMMHEKKDGTLMNEFTTPILQEVMENSKIMQLGKYEPMEGTEKKFTFWADKPGAYWVGEGQKIETSKATWVNATMRAFKLGVILPVTKEFLNYTYSQFFEEMKPMIAEAFYKKFDEAGILNQGNNPFGKSIAQSIEKTNKVIKGDFTQDNIIDLEALLEDDELEANAFISKTQNRSLLRKIVDPETKERIYDRNSDSLDGLPVVNLKSSNLKRGELITGDFDKLIYGIPQLIEYKIDETAQLSTVKNEDGTPVNLFEQDMVALRATMHVALHIADDKAFAKLVPADKRTDSVPGEV
notes: capsid protein gp47 of Staphylococcus aureus bacteriophage 80α, cut product: the first 14 residues are removed by the Prp protease; domains printed as N-arm 15-67, E-loop 68-104, P-domain 105-167 and 248-307, A-domain 168-247 and 308-324; residues 16-313 modelled; 240 copies in the icosahedral T=4 capsid; in the real virion five subunits at one vertex are replaced by the portal; also called CP; …
stoichiometry N [3]: 240
